{"source": "the supplement of paper PMC9170038"}
{"tested_on": "MS2 coat protein", "assay": "apparent KD of MS2 coat protein, switch OFF state (with FMN for OFF switches, without FMN for ON switches); designed switch direction (-1 OFF switch, 1 ON switch): 1; higher = weaker reporter binding", "conditions": "FMN input: 0 or 200 uM; Eterna round: R93 (includes R88 designs)", "method_in_brief": "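On-chip transcription from Illumina sequencing clusters produced the designed RNA switches. These were titrated with SNAP-549-labelled MS2 coat protein (twofold steps, 0.7 or 1.5 nM to 3 µM) in 100 mM Tris-HCl pH 7.5, 80 mM KCl, 4 mM MgCl2, with or without constant ligand. The apparent KD given is the per-design median of normalised cluster binding-curve fits.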", "units": {"apparent KD of MS2 coat protein": "nM"}}
{"sequence": "AUAUAUAUAAGGUAGGAUAUCCAAAAAUAAACAUGAGGAUCACCCAUGUCCAUAAAGAAUAAAUGGGAGAAGGACCAUAUAUAUA [viburnum 9]", "apparent KD of MS2 coat protein": 48.6}
{"sequence": "AGAUCUAGAAGGUAGGAUAUGUGAAAAAAAACAUGAGGAUCACCCAUGUGAUGAAUAAAAAGAAAAUAGAAGGACCAUCUAGAUC [Cross swing 1]", "apparent KD of MS2 coat protein": 59}
{"sequence": "ACAAACAAAAAAGAGGAUAUCCUAAACAAAACAUGAGGAUCACCCAUGUAAAAAAAAAUAAAAUGGGAGAAGGCUUACAACAAAC [SS2 M 23]", "apparent KD of MS2 coat protein": 51.7}
{"sequence": "AAGAAACAUGAGGAUCACCCAUGUAAGAUAAACACAGGAUAUGCGAAUAAAAUAAAUAAAGCAGAAGGGUGAAGAA [Mat - Same State 1 - Tesla mod - D150]", "apparent KD of MS2 coat protein": 34.3}
{"sequence": "AUAAAGAAAACACAGGAUAUCCAAAAGAAAACAUGAGGAUCACCCAUGUAAAGAAAAUAAAAAUGGGAGAAGGGUGAAAGAAAUA [Mat - Same State 2 - JL mod - D40]", "apparent KD of MS2 coat protein": 109}
{"sequence": "AAGAAACAUGAGGAUCACCCAUGUGAGAUAAACACAGGAUAUGCGAAAAUAAAUAAAUAAGCAGAAGGGUGAAGAA [Mat - Same State 1 - Tesla mod - 69]", "apparent KD of MS2 coat protein": 82.6}
{"sequence": "AUGAAUAGAAUCGAGGAUAUCCAGUCAUGAACAUGAGGAUCACCCAUGUAAGAGAGAGUAUAAUGGGAGAAGGCGAGUAAUAGAU [JR_SS002_Sub1702]", "apparent KD of MS2 coat protein": 84.5}
{"sequence": "AGAAAACAUGAGGAUCACCCAUGUAGAAACAUGGGAGGAUAUACAAAGACGAAAGUCAAAGUAGAAGGCCUAAAAA [Mat - Same State 1 - Mod - D163]", "apparent KD of MS2 coat protein": 140}
{"sequence": "GGGAGACAUGAGGAUCACCCAUGUGAGAAGAGGCGAGGAUAUCGAAAGAAAGAAGAGAAACGAGAAGGCGCGAGCU [salish99-SS1-056]", "apparent KD of MS2 coat protein": 62}
{"sequence": "UAGAGAACAGGGUAGGAUAUGCAUGGUCGUACAUGAGGAUCACCCAUGUAGUCUAGAAAAUAAAUGCAGAAGGACCAAAAGAAAA [Edsodiin]", "apparent KD of MS2 coat protein": 32}
{"sequence": "AAUACCACUAGCAAGGAUAUCUAAAACGAAACAUGAGGAUCACCCAUGUGACGACCACACGUAUCAGAGAAGGUGCAGGGUGAAU [JR_SS002_Sub306]", "apparent KD of MS2 coat protein": 24}
{"sequence": "AAUAAGACUAGCAAGGAUAUCUAAAACGAAACAUGAGGAUCACCCAUGUAACGAGUACACGUAUCAGAGAAGGUGCAGGGUGAAA [JR_SS002_Sub305]", "apparent KD of MS2 coat protein": 16.2}
{"sequence": "UAAUAAUAAACCAAGGAUAUGGAGUAAAGAACAUGAGGAUCACCCAUGUGUAGCGUGGAAUAGUACCAGAAGGUGGAGUGAAAUG [JR_SS002_Sub1003]", "apparent KD of MS2 coat protein": 52.3}
{"sequence": "UAUAAACAUGAGGAUCACCCAUGUAGAAAUAUGGGAGGAUAUACGAAGACGAAAGUCAAAGUAGAAGGCCUAAUAU [Mat - Same State 1 - Eli mod - D113]", "apparent KD of MS2 coat protein": 49.2}
{"sequence": "AGCGAACAUGAGGAUCACCCAUGUGAAAAACAUAGAGGAUAUGUCGCAUGCGUGUAAAAGACAGAAGGCUAUCGCG [Mat - Mod of Nando]", "apparent KD of MS2 coat protein": 52.1}
{"sequence": "GAAGACAUAGUAUAGGAUAUAUGAAUAAUUACAUGAGGAUCACCCAUGUGCAUUUAUAUGCGAACAUAGAAGGGUGGUAGUUGUC [Mat - Same state - Malcolm Mod - D129]", "apparent KD of MS2 coat protein": 59.2}
{"sequence": "AGAAGACAUGAGGAUCACCCAUGUGGGAUUAUGGGAGGAUAUACAAAGACGAGAGUCAGAGUAGAAGGCCUAGGAU [salish99-ss1-113(!)]", "apparent KD of MS2 coat protein": 70.8}
{"sequence": "AGAAAACAUGAGGAUCACCCAUGUGACAAUAUGGGAGGAUAUACCAAGACGAAAGUCGAAGUAGAAGGCCUAAAGA [Garnet 51]", "apparent KD of MS2 coat protein": 69.8}
{"sequence": "CUGGACGUAGGAUAGGAUAUAUGAAUAAUUACAUGAGGAUCACCCAUGUCCAUUUAUAUGGGAACAUAGAAGGGUUGUGGUUAAG [Mat - Same state - Malcolm Mod - D145]", "apparent KD of MS2 coat protein": 241}
{"sequence": "AAGAAACAUGAGGAUCACCCAUGUAAAUUCAAGAGAGGAUAUCGUACAUGGAAGAUUCAACGAGAAGGCUCUAGAA [Pariah 3 (MS2 Riboswitches - Same State 1)]", "apparent KD of MS2 coat protein": 83}
{"sequence": "AAGAGACAUGAGGAUCACCCAUGUAGGAUUAUGGGAGGAUAUACAAAGACGAGAGUCAGAGUAGAAGGCCUAGGAC [salish99-ss1-132(!)]", "apparent KD of MS2 coat protein": 53.8}
{"sequence": "CGAAGACAUGAGGAUCACCCAUGUGGGAAUAUGGGAGGAUAUACAAAGACGAGAGUCAGAGUAGAAGGCCUAGGAC [salish99-ss1-108]", "apparent KD of MS2 coat protein": 75.5}
{"sequence": "AAAGACAUAGUUCAGGAUAUGGUAAUAGUCACAUGAGGAUCACCCAUGUGCAUUUAUAUGCGCGAUCAGAAGGGAGGUAGAUAAA [SameState2 Malc#17]", "apparent KD of MS2 coat protein": 21.5}
{"sequence": "CAUCAUGCGCCUAAGGAUAUGUCUCACAAGACAUGAGGAUCACCCAUGUAGAAUAAAUAAAUGAUGCAGAAGGUGGAGCACAUGC [Leedanla]", "apparent KD of MS2 coat protein": 586}
{"sequence": "AUAAAACAUGAGGAUCACCCAUGUAGACACAUGGGAGGAUAUACUAGAUCGAAAGAUCUAGUAGAAGGCCUUUGUA [Mat - Same State 1 - JL mod - D93]", "apparent KD of MS2 coat protein": 749}
{"sequence": "AAAUAUAAAGACUAGGAUAUACUAAAAUAAACAUGAGGAUCACCCAUGUAAAAAAUAAAACUCAUGUAGAAGGAGUAAAUAUAAA [ss2 10th]", "apparent KD of MS2 coat protein": 15.5}
{"sequence": "AGGAAACAUGAGGAUCACCCAUGUAAAAAAUAUGGAGGAUAUGCUAGAAGAAACAAAAUAGCAGAAGGCCAAAAAA [75%, Ex sub1, 23]", "apparent KD of MS2 coat protein": 24.7}
{"sequence": "AAUAACUAUAGCAAGGAUAUCCGAAACAAGACAUGAGGAUCACCCAUGUAAUAAGACAAAAUAUAGGAGAAGGUGCAGGGUGAAA [JR_SS002_Sub010]", "apparent KD of MS2 coat protein": 116}
{"sequence": "AAAAGACAUGAGGAUCACCCAUGUCAAAACGUAGGAGGAUAUGUCGUGAAAAAAGACUUGACAGAAGGCCUGUGUC [SS1 - 36]", "apparent KD of MS2 coat protein": 17.1}
{"sequence": "AUAAAAGAAGCGAAGGAUAUCCAAAACCUAACAUGAGGAUCACCCAUGUAAAGAAAGAAAAAAUGGGAGAAGGUCGCAAAGAAUA [73%, More Fisker Same State 2, D3, 9]", "apparent KD of MS2 coat protein": 22.7}
{"sequence": "GAAAAACAUGAGGAUCACCCAUGUAGAAAUAUGGGAGGAUAUACAAAGACGAAAGUCAAGGUAGAAGGCCUAAAAG [Mat - Same State 1 - Eli mod - 25]", "apparent KD of MS2 coat protein": 78.8}
{"sequence": "GAAAAACAUGAGGAUCACCCAUGUGAGAUAAACACAGGAUAUGCGAAAAUAAACAAAUAAGCAGAAGGGUGAAAAG [Mat - Same State 1 - Tesla mod - 80]", "apparent KD of MS2 coat protein": 92.4}
{"sequence": "UCCUUACAUGAGGAUCACCCAUGUCGCAGGAAUCAAGGAUAUGGGACCGCAAUGCGGAAACCAGAAGGUGACAAAA [Zaesor]", "apparent KD of MS2 coat protein": 322}
{"sequence": "AAUAUAUUAAGUGAGGAUAUCGAGGAAAAAACAUGAGGAUCACCCAUGUGGGAAACAUGGUCGGGUGAGAAGGCACUUAAUAUAU [Samwise Clockwise 25 - Jieux - Same State 2]", "apparent KD of MS2 coat protein": 326}
{"sequence": "AAAUAAAUGACUGAGGAUAUAUCGAUGAAAACAUGAGGAUCACCCAUGUGAUAAUAAAAAGGGUGAUAGAAGGUAGUCAACAAAC [Mod 11 of Pariah 4 by Hyphema in Round 1]", "apparent KD of MS2 coat protein": 211}
{"sequence": "AAAAAACAUGAGGAUCACCCAUGUGACAACAUGGGAGGAUAUACAAAGACGAGAGUCGAAGUAGAAGGCCUAAAAA [Garnet 77]", "apparent KD of MS2 coat protein": 32.6}
{"sequence": "AAAUAAAUGACUCAGGAUAUGUCAGAGAAAACAUGAGGAUCACCCAUGUAAUAAUAACAUGUGUGACAGAAGGGAGUCAAUAAAU [LROPPY Same State 2 - v01_deltaG=.6]", "apparent KD of MS2 coat protein": 15}
{"sequence": "AGAAAUAAAAGAGAGGAUAUCCAAAAAGGGACAUGAGGAUCACCCAUGUAAAAGAAAAUAAAAUGGGAGAAGGCUCAAAAUAAAG [80%, More Helter Skelter 2]", "apparent KD of MS2 coat protein": 120}
{"sequence": "CAGAGACAUGAGGAUCACCCAUGUAGGAUUAUGGGAGGAUAUACAAAGACGAGAGUCAGAGUAGAAGGCCUAGGAG [salish99-ss1-143]", "apparent KD of MS2 coat protein": 48.6}
{"sequence": "UAACAGCACAGGUAGGAUAUGUAGGGUGGUACAUGAGGAUCACCCAUGUAUCCACCCUUCGAAAGGCAGAAGGGCCUGUCGCUAC [Velabibe]", "apparent KD of MS2 coat protein": 20.4}
{"sequence": "AAAAGACAUGAGGAUCACCCAUGUCAAAACGUAGGAGGAUAUGUAUGGAAACCAUACUGUACAGAAGGCCUUUGUC [SS1 - 77]", "apparent KD of MS2 coat protein": 14.2}
{"sequence": "AAGGCACAUGAGGAUCACCCAUGUUAGCCGCGACGAGGAUAUGGGAACGCGUCAGCGGAAUUAGAAGGUGUGGUGA [Qusoquan]", "apparent KD of MS2 coat protein": 37.8}
